Measured values reported in article PMC12586598 (2025).

Tests used:
Assay in all cases: SPR
[1] = target: long-acting C5a-blocking cyclic peptide drug Cp1 (head-tail cyclization of the linear peptide K1)
K4 = target: K4
K3 = target: K3
K2 = target: K2
linear peptide K1 = target: linear peptide K1

| Binder | Kd [1] | koff [1] | Kd (K4) | koff (K4) | Kd (K3) | koff (K3) | Kd (K2) | koff (K2) | Kd (linear peptide K1) | koff (linear peptide K1) |
| --- | --- | --- | --- | --- | --- | --- | --- | --- | --- | --- |
| human C5a protein (ligand) TLQKKIEEIAAKYKHSVVKKCCYDGACVNNDETCEQRAARISLGPRCIKAFTECCVVASQLRANISHKDMQLGR | 7.41 µM | 0.395 s⁻¹ | – | – | – | – | – | – | – | – |
| mouse C5a protein (ligand) NLHLLRQKIEEQAAKYKHSVPKKCCYDGARVNFYETCEERVARVTIGPLCIRAFNECCTIANKIRKESPHKPVQLGR | 5.63 µM | – | 2380 nM | 0.0299 s⁻¹ | 7.12 µM | 0.392 s⁻¹ | 53.6 µM | 0.00405 s⁻¹ | 2850 nM | 0.00586 s⁻¹ |
| mouse C5a-desArg (ligand) NLHLLRQKIEEQAAKYKHSVPKKCCYDGARVNFYETCEERVARVTIGPLCIRAFNECCTIANKIRKESPHKPVQLGR | 3.58 µM | – | – | – | – | – | – | – | – | – |
| mouse C5 (natural protein) chain 1: QEQTYVISAPKILRVGSSENVVIQVHGYTEAFDATLSLKSYPDKKVTFSSGYVNLSPENKFQNAALLTLQPNQVPREESPVSHVYLEVVSKHFSKSKKIPITYNNGILFIHTDKPVYTPDQSVKIRVYSLGDDLKPAKRETVLTFIDPEGSEVDIVEENDYTGIISFPDFKIPSNPKYGVWTIKANYKKDFTTTGTAYFEIKEYVLPRFSVSIELERTFIGYKNFKNFEITVKARYFYNKVVPDAEVYAFFGLREDIKDEEKQMMHKATQAAKLVDGVAQISFDSETAVKELSYNSLEDLNNKYLYIAVTVTESSGGFSEEAEIPGVKYVLSPYTLNLVATPLFVKPGIPFSIKAQVKDSLEQAVGGVPVTLMAQTVDVNQETSDLETKRSITHDTDGVAVFVLNLPSNVTVLKFEIRTDDPELPEENQASKEYEAVAYSSLSQSYIYIAWTENYKPMLVGEYLNIMVTPKSPYIDKITHYNYLILSKGKIVQYGTREKLFSSTYQNINIPVTQNMVPSARLLVYYIVTGEQTAELVADAVWINIEEKCGNQLQVHLSPDEYVYSPGQTVSLDMVTEADSWVALSAVDRAVYKVQGNAKRAMQRVFQALDEKSDLGCGAGGGHDNADVFHLAGLTFLTNANADDSHYRDDSCKEIL chain 2: NLHLLRQKIEEQAAKYKHSVPKKCCYDGARVNFYETCEERVARVTIGPLCIRAFNECCTIANKIRKESPHKPVQLGRIHIKTLLPVMKADIRSYFPESWLWEIHRVPKRKQLQVTLPDSLTTWEIQGIGISDNGICVADTLKAKVFKEVFLEMNIPYSVVRGEQIQLKGTVYNYMTSGTKFCVKMSAVEGICTSGSSAASLHTSRPSRCVFQRIEGSSSHLVTFTLLPLEIGLHSINFSLETSFGKDILVKTLRVVPEGVKRESYAGVILDPKGIRGIVNRRKEFPYRIPLDLVPKTKVERILSVKGLLVGEFLSTVLSKEGINILTHLPKGSAEAELMSIAPVFYVFHYLEAGNHWNIFYPDTLSKRQSLEKKIKQGVVSVMSYRNADYSYSMWKGASASTWLTAFALRVLGQVAKYVKQDENSICNSLLWLVEKCQLENGSFKENSQYLPIKLQGTLPAEAQEKTLYLTAFSVIGIRKAVDICPTMKIHTALDKADSFLLENTLPSKSTFTLAIVAYALSLGDRTHPRFRLIVSALRKEAFVKGDPPIYRYWRDTLKRPDSSVPSSGTAGMVETTAYALLASLKLKDMNYANPIIKWLSEEQRYGGGFYSTQDTINAIEGLTEYSLLLKQIHLDMDINVAYKHEGDFHKYKVTEKHFLGRPVEVSLNDDLVVSTGYSSGLATVYVKTVVHKISVSEEFCSFYLKIDTQDIEASSHFRLSDSGFKRIIACASYKPSKEESTSGSSHAVMDISLPTGIGANEEDLRALVEGVDQLLTDYQIKDGHVILQLNSIPSRDFLCVRFRIFELFQVGFLNPATFTVYEYHRPDKQCTMIYSISDTRLQKVCEGAACTCVEADCAQLQAEVDLAISADSRKEKACKPETAYAYKVRITSATEENVFVKYTATLLVTYKTGEAADENSEVTFIKKMSCTNANLVKGKQYLIMGKEVLQIKHNFSFKYIYPLDSSTWIEYWPTDTTCPSCQAFVENLNNFAEDLFLNSCE | 0.712 µM | 0.0745 s⁻¹ | – | – | – | – | – | – | – | – |
